# According to article PMC12412786 (Nucleic Acids Research, 2025):
# Where “and” joins values, the source holds several entries; their conditions need not be identical. Equal entries are not always repeated.
# Biological target: the molecule itself
# Assay: mass photometry
protein,measurement,value
murine PARP2 (poly(ADP-ribose) polymerase 2) (enzyme) MAPRRQRSGSGRRVLNEAKKVDNGNKATEDDSPPGKKMRTCQRKGPMAGGKDADRTKDNRDSVKTLLLKGKAPVDPECAAKLGKAHVYCEGDDVYDVMLNQTNLQFNNNKYYLIQLLEDDAQRNFSVWMRWGRVGKTGQHSLVTCSGDLNKAKEIFQKKFLDKTKNNWEDRENFEKVPGKYDMLQMDYAASTQDESKTKEEETLKPESQLDLRVQELLKLICNVQTMEEMMIEMKYDTKRAPLGKLTVAQIKAGYQSLKKIEDCIRAGQHGRALVEACNEFYTRIPHDFGLSIPPVIRTEKELSDKVKLLEALGDIEIALKLVKSERQGLEHPLDQHYRNLHCALRPLDHESNEFKVISQYLQSTHAPTHKDYTMTLLDVFEVEKEGEKEAFREDLPNRMLLWHGSRLSNWVGILSHGLRVAPPEAPITGYMFGKGIYFADMSSKSANYCFASRLKNTGLLLLSEVALGQCNELLEANPKAQGLLRGKHSTKGMGKMAPSPAHFITLNGSTVPLGPASDTGILNPEGYTLNYNEFIVYSPNQVRMRYLLKIQFNFLQLW,stoichiometry N,2 and 3
